Reference: patent US20250304666A1 (ALCHEMAB THERAPEUTICS, published 2025)

T1: reduced CFHR1 (UniProt Q03591 19-330, limits assumed)
T1 sequence (looked up): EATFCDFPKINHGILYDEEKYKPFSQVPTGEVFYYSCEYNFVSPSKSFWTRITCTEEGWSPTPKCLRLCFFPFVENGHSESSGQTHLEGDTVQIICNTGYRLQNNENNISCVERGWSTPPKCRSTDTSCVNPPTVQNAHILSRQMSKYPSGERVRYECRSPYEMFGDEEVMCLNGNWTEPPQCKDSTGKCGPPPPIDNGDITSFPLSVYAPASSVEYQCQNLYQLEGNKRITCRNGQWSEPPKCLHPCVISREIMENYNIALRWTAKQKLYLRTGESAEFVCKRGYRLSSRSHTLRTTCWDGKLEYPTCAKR

T2: reduced CFHR2 (UniProt P36980 19-270, limits assumed)
T2 sequence (looked up): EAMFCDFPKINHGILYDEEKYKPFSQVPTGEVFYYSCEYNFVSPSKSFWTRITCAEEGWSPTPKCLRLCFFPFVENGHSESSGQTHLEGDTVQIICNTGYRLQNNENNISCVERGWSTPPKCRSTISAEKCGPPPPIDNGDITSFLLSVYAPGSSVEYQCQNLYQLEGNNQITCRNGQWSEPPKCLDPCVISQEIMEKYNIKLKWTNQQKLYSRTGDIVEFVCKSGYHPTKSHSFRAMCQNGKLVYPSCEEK

T3: reduced CFHR3 (UniProt Q02985 19-330, limits assumed)
T3 sequence (looked up): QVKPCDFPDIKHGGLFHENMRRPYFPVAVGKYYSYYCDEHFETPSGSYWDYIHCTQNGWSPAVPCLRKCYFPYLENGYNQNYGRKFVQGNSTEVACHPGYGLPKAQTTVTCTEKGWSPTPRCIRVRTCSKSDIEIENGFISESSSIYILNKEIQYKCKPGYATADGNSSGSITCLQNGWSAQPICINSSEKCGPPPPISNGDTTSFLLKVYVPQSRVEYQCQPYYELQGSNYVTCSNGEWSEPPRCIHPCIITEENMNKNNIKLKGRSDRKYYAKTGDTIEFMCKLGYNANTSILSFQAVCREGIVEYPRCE

T4: reduced CFHR5 (UniProt Q9BXR6 19-569, limits assumed)
T4 sequence (looked up): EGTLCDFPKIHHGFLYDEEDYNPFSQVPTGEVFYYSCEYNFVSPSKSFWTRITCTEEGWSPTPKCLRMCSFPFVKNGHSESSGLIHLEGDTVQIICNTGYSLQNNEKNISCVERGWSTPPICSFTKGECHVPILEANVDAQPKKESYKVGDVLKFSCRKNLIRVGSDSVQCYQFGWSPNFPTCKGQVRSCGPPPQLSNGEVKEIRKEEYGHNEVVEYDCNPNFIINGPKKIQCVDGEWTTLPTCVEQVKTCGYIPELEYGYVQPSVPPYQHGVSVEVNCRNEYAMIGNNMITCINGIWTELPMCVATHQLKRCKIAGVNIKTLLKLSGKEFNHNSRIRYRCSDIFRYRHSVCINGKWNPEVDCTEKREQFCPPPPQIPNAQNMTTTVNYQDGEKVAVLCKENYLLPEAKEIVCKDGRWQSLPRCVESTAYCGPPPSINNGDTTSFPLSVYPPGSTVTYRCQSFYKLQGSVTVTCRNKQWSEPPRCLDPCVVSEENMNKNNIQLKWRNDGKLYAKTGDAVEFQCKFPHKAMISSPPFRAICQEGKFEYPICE

T5: reduced CFH (Homo sapiens (Human), UniProt P08603 860-1231, limits assumed)
T5 construct: also called CFH (reduced)
T5 sequence: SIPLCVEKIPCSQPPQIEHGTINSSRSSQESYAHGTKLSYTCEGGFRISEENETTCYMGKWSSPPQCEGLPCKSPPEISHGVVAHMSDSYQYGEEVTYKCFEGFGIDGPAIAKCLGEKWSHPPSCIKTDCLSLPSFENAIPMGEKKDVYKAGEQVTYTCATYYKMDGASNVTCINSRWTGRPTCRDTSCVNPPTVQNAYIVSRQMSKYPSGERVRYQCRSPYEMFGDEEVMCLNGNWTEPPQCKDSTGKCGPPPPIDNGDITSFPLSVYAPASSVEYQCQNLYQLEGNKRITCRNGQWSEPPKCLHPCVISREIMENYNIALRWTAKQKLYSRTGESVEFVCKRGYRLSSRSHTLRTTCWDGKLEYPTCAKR


How the values were obtained:
Assay in all cases: ELISA, reduced antigen
[1] = biological target: T1, reduced CFHR1
[2] = biological target: T2, reduced CFHR2
[3] = biological target: T3, reduced CFHR3
[4] = biological target: T4, reduced CFHR5
[5] = biological target: T5, reduced CFH

Row | fold change vs isotype at 1 ug/ml [1] [fold] | fold change vs isotype at 1 ug/ml [2] [fold] | binding result [3] | fold change vs isotype at 1 ug/ml [3] [fold] | binding result [4] | fold change vs isotype at 1 ug/ml [4] [fold] | fold change vs isotype at 1 ug/ml [5] [fold] | Binder
1 | 23.8 | 10.7 | no binding (tested: 1 ug/ml) | 0.9 | no binding (tested: 1 ug/ml) | 1 | 17.6 | ATL4717 (antibody, human IgG1, kappa, V domains shown, Human IgG1; also called ATL0004717; ATL04717) VH: QVQLVESGGGMVQPGRSLRLSCAASGFTFSIYGMHWVRQAPGRGLEWVAVMSFDGKTKYYADSVKGRFTISRDNSKNTLYLQMNSLRRVDTAVYYCAKGGATAAVFDSWGQGTLVTVSS VL: not shown
2 | 23.1 | 8.4 | – | 1 | – | 1.1 | 18.1 | ATL5170 (antibody, human IgG1, kappa, V domains shown, IgG1; also called ATL_0005170) VH: QVQLVESGGGVVQPGRSLRLSCAASGFTFSNYGMHWVRQAPGKGLEWVAVTSFDGKTKYYADSVKGRFTISRDNSKNTLYLQMNSLRAEDTAVYYCAKGGATAAVLDSWGQGTLVTVSS VL: not shown
